Results as given in publication PMC8184781, “A histone H3K4me1-specific binding protein is required for siRNA accumulation and DNA methylation at a subset of loci targeted by RNA-directed DNA methylation” (Nature Communications, 2021).

Biological target: H4K20me1 peptide (monomethyllysine at K20)
Assay: ITC; Microcal PEAQ-ITC; peptide (about 1.0–1.5 mM) and protein (about 0.8–0.12 mM as printed) in 100 mM NaCl, 20 mM HEPES pH 7.0, 2 mM β-mercaptoethanol; 20 °C
Details: both partners purified

Kd: 22.9 µM
B1: RDM15 Tudor domain (residues 598–662) (domain or fragment, Arabidopsis thaliana, UniProt Q8GUP3 598-662, looked up)
chain: LGQGKASGESLVGSRIKVWWPMDQAYYKGVVESYDAAKKKHLVIYDDGDQEILYLKNQKWSPLDE
notes: A Se-Met labelled form was also made; the structure was solved by SAD, so the crystal may hold the Se-Met protein; also called C-terminal Tudor domain of RDM15; source: E. coli BL21(DE3), purified (HisTrap, ulp1 digestion, second HisTrap, Superdex G75)
